Tests used:
Experiment in all cases: IEDB peptide-MHC binding, purified MHC/competitive/radioactivity; filed as Kd, often an IC50 or EC50 that approximates it; ≥ and ≤ were set here for values at or beyond the usual limits of such assays
HLA-A*02:03 = target: HLA-A*02:03
HLA-A*02:02 = target: HLA-A*02:02
HLA-A*02:06 = target: HLA-A*02:06
[1] = source organism: Vaccinia virus WR
[2] = source organism: Mammarenavirus machupoense
[3] = source organism: Dengue virus 3 Martinique/1243/1999
[4] = source organism: SARS coronavirus Tor2
[5] = source organism: Dengue virus 4 Philippines/H241/1956
[6] = source organism: Mammarenavirus brazilense
[7] = source organism: Lymphocytic choriomeningitis virus (strain Armstrong)

In the case of KVTGSYNLV, the Kd (HLA-A*02:03; [1]) is reported as 43.1 nM, the Kd (HLA-A*02:02; [1]) is reported as 66.3 nM and the Kd (HLA-A*02:06; [1]) is reported as 193 nM.

Sequence ILFQNNDINA has a Kd (HLA-A*02:03; [1]) of 407 nM, a Kd (HLA-A*02:02; [1]) of 23.3 nM and a Kd (HLA-A*02:06; [1]) of 3180 nM.

In the case of IITILQDIV, the Kd (HLA-A*02:03; [1]) is reported as 666 nM, the Kd (HLA-A*02:02; [1]) is reported as 827 nM and the Kd (HLA-A*02:06; [1]) is reported as 658 nM.

Work on NIPELKHGLL yielded a Kd (HLA-A*02:03; [1]) of 2690 nM, a Kd (HLA-A*02:02; [1]) of 2300 nM and a Kd (HLA-A*02:06; [1]) of 1230 nM.

In the case of LNKSDSSWAV, the Kd (HLA-A*02:03; [2]) is reported as 5250 nM, the Kd (HLA-A*02:02; [2]) is reported as 550 nM and the Kd (HLA-A*02:06; [2]) is reported as 2190 nM.

In the case of AIVLEFFMMV, the Kd (HLA-A*02:06; [3]) is reported as 7.87 nM.

TVDFTDCRTI was tested, and the Kd (HLA-A*02:03; [1]) was 10400 nM, the Kd (HLA-A*02:02; [1]) was no less than 31800 nM and the Kd (HLA-A*02:06; [1]) was 10600 nM.

Work on IASILSLET yielded a Kd (HLA-A*02:03; [1]) of 7480 nM, a Kd (HLA-A*02:02; [1]) of 3670 nM and a Kd (HLA-A*02:06; [1]) of 318 nM.

For LLSAGIFGA, the Kd (HLA-A*02:03; [4]) was 14.9 nM, the Kd (HLA-A*02:02; [4]) was 12.3 nM and the Kd (HLA-A*02:06; [4]) was 24.6 nM.

In the case of IIELPYVGDT, the Kd (HLA-A*02:03; [1]) is reported as 4420 nM, the Kd (HLA-A*02:02; [1]) is reported as 13700 nM and the Kd (HLA-A*02:06; [1]) is reported as 16900 nM.

NLKYSVIVTV showed a Kd (HLA-A*02:03; source organism: Dengue virus 1 Brazil/97-11/1997) of 5.6 nM.

For YMVTDKTAYI, the Kd (HLA-A*02:03; [1]) was 0.277 nM, the Kd (HLA-A*02:02; [1]) was 0.225 nM and the Kd (HLA-A*02:06; [1]) was 6.12 nM.

In the case of CVDIFTEGKI, the Kd (HLA-A*02:03; [1]) is reported as 17500 nM, the Kd (HLA-A*02:02; [1]) is reported as no less than 70000 nM and the Kd (HLA-A*02:06; [1]) is reported as no less than 20900 nM.

LMLVTPSMTM showed a Kd (HLA-A*02:06; [3]) of 974 nM.

SLDQTHIKTI gave a Kd (HLA-A*02:03; [1]) of 14.6 nM, a Kd (HLA-A*02:02; [1]) of 1430 nM and a Kd (HLA-A*02:06; [1]) of 2460 nM.

With IVFGIYKDNL the Kd (HLA-A*02:03; [1]) was 792 nM, the Kd (HLA-A*02:02; [1]) was 187 nM and the Kd (HLA-A*02:06; [1]) was 47.8 nM.

PASISSVLTI gave a Kd (HLA-A*02:03; [1]) of 83.3 nM, a Kd (HLA-A*02:02; [1]) of 1360 nM and a Kd (HLA-A*02:06; [1]) of 1550 nM.

Work on VQEFIFSAL yielded a Kd (HLA-A*02:03; [1]) of 466 nM, a Kd (HLA-A*02:02; [1]) of 419 nM and a Kd (HLA-A*02:06; [1]) of 198 nM.

KIEDLINQLV gave a Kd (HLA-A*02:03; [1]) of 70.8 nM, a Kd (HLA-A*02:02; [1]) of 87 nM and a Kd (HLA-A*02:06; [1]) of 145 nM.

For DLEALKKETI, the Kd (HLA-A*02:06; source organism: Homo sapiens) was no less than 97400 nM.

For KVDNFTMGV, the Kd (HLA-A*02:06; [3]) was 4.24 nM.

Work on VAMLLTHGA yielded a Kd (HLA-A*02:03; [1]) of 628 nM, a Kd (HLA-A*02:02; [1]) of 7160 nM and a Kd (HLA-A*02:06; [1]) of 726 nM.

For RASTTENAA, the Kd (HLA-A*02:03; [1]) was no less than 66700 nM, the Kd (HLA-A*02:02; [1]) was no less than 26700 nM and the Kd (HLA-A*02:06; [1]) was 12100 nM.

In the case of MMNERDVSV, the Kd (HLA-A*02:03; [1]) is reported as 0.27 nM, the Kd (HLA-A*02:02; [1]) is reported as 0.441 nM and the Kd (HLA-A*02:06; [1]) is reported as 63.9 nM.

IAVFDSKLI gave a Kd (HLA-A*02:03; [1]) of 11900 nM, a Kd (HLA-A*02:02; [1]) of 7850 nM and a Kd (HLA-A*02:06; [1]) of 11900 nM.

For ETIQKDINIT, the Kd (HLA-A*02:03; [1]) was 10.1 nM, the Kd (HLA-A*02:02; [1]) was 354 nM and the Kd (HLA-A*02:06; [1]) was 112 nM.

In the case of PLISILMIFI, the Kd (HLA-A*02:03; [1]) is reported as 769 nM, the Kd (HLA-A*02:02; [1]) is reported as 433 nM and the Kd (HLA-A*02:06; [1]) is reported as 2420 nM.

HTYHLENDKI showed a Kd (HLA-A*02:03; [1]) of 13700 nM, a Kd (HLA-A*02:02; [1]) of 1790 nM and a Kd (HLA-A*02:06; [1]) of 1990 nM.

RVILAGPIPV gave a Kd (HLA-A*02:03; [5]) of 8.4 nM and a Kd (HLA-A*02:06; [5]) of 33.5 nM.

For NAILHNIYRL, the Kd (HLA-A*02:03; [1]) was 10200 nM, the Kd (HLA-A*02:02; [1]) was 5610 nM and the Kd (HLA-A*02:06; [1]) was 576 nM.

ALVLLILMTA showed a Kd (HLA-A*02:03; [4]) of 50.7 nM, a Kd (HLA-A*02:02; [4]) of 67.2 nM and a Kd (HLA-A*02:06; [4]) of 61.4 nM.

IQKDINITHT gave a Kd (HLA-A*02:03; [1]) of 340 nM, a Kd (HLA-A*02:02; [1]) of 1360 nM and a Kd (HLA-A*02:06; [1]) of no less than 61700 nM.

In the case of KLLSTSNVIT, the Kd (HLA-A*02:03; [1]) is reported as 3350 nM, the Kd (HLA-A*02:02; [1]) is reported as 2260 nM and the Kd (HLA-A*02:06; [1]) is reported as 1550 nM.

DIISSKQYPA was tested, and the Kd (HLA-A*02:03; [1]) was 2430 nM, the Kd (HLA-A*02:02; [1]) was 552 nM and the Kd (HLA-A*02:06; [1]) was 3100 nM.

VVYHDDDNTT gave a Kd (HLA-A*02:03; [1]) of 12600 nM, a Kd (HLA-A*02:02; [1]) of 1860 nM and a Kd (HLA-A*02:06; [1]) of 3920 nM.

KILSDENYLL showed a Kd (HLA-A*02:03; [1]) of 3770 nM, a Kd (HLA-A*02:02; [1]) of 25.2 nM and a Kd (HLA-A*02:06; [1]) of 15.6 nM.

Work on EAAAATCALV yielded a Kd (HLA-A*02:03; [1]) of 248 nM, a Kd (HLA-A*02:02; [1]) of 1810 nM and a Kd (HLA-A*02:06; [1]) of 60.1 nM.

In the case of LALKNSQAEL, the Kd (HLA-A*02:03; [1]) is reported as 333 nM, the Kd (HLA-A*02:02; [1]) is reported as 741 nM and the Kd (HLA-A*02:06; [1]) is reported as 1250 nM.

LLFQLCTFT gave a Kd (HLA-A*02:03; [4]) of 3.77 nM, a Kd (HLA-A*02:02; [4]) of 22.3 nM and a Kd (HLA-A*02:06; [4]) of 11.1 nM.

For GLLEWIFRA, the Kd (HLA-A*02:03; [6]) was 225 nM, the Kd (HLA-A*02:02; [6]) was 21.9 nM and the Kd (HLA-A*02:06; [6]) was 7.13 nM.

Work on PTEMVDVSMM yielded a Kd (HLA-A*02:03; [1]) of no less than 70400 nM, a Kd (HLA-A*02:02; [1]) of 11500 nM and a Kd (HLA-A*02:06; [1]) of 12100 nM.

FQRALIFIL showed a Kd (HLA-A*02:06; source organism: Dengue virus 2 Jamaica/1409/1983) of 16.9 nM.

FMTATPPGTA was tested, and the Kd (HLA-A*02:03; [3]) was 2.17 nM.

In the case of MLLNVQTLI, the Kd (HLA-A*02:03; [1]) is reported as 0.25 nM, the Kd (HLA-A*02:02; [1]) is reported as 0.169 nM and the Kd (HLA-A*02:06; [1]) is reported as 0.219 nM.

LVSDCASTI was tested, and the Kd (HLA-A*02:03; [1]) was 17.2 nM, the Kd (HLA-A*02:02; [1]) was 48.9 nM and the Kd (HLA-A*02:06; [1]) was 61.3 nM.

In the case of LIDFYLCFL, the Kd (HLA-A*02:03; [4]) is reported as 61 nM, the Kd (HLA-A*02:02; [4]) is reported as 8.31 nM and the Kd (HLA-A*02:06; [4]) is reported as 10.9 nM.

Sequence IVDTVSALV has a Kd (HLA-A*02:03; [4]) of 528 nM, a Kd (HLA-A*02:02; [4]) of 16.6 nM and a Kd (HLA-A*02:06; [4]) of 42.9 nM.

ALMDCIIFES gave a Kd (HLA-A*02:03; [7]) of 16.4 nM, a Kd (HLA-A*02:02; [7]) of 2.13 nM and a Kd (HLA-A*02:06; [7]) of 12.8 nM.

With FAISYCRAFI the Kd (HLA-A*02:03; [1]) was 38.3 nM, the Kd (HLA-A*02:02; [1]) was 105 nM and the Kd (HLA-A*02:06; [1]) was 34.5 nM.

Sequence MLPESDLDKV has a Kd (HLA-A*02:03; [1]) of 1770 nM, a Kd (HLA-A*02:02; [1]) of 3.23 nM and a Kd (HLA-A*02:06; [1]) of 4.42 nM.

ELTTVFIKYV was tested, and the Kd (HLA-A*02:03; [1]) was 719 nM, the Kd (HLA-A*02:02; [1]) was 2790 nM and the Kd (HLA-A*02:06; [1]) was 463 nM.

SMWALVISV was tested, and the Kd (HLA-A*02:03; [4]) was 4.43 nM, the Kd (HLA-A*02:02; [4]) was 6.12 nM and the Kd (HLA-A*02:06; [4]) was 0.793 nM.

For AMHSALAGA, the Kd (HLA-A*02:03; source organism: Dengue virus 4 Dominica/814669/1981) was 8.58 nM.

IVPDIKLDA gave a Kd (HLA-A*02:03; [1]) of 15700 nM, a Kd (HLA-A*02:02; [1]) of 6390 nM and a Kd (HLA-A*02:06; [1]) of 3430 nM.

Sequence ELIDVLKTRL has a Kd (HLA-A*02:03; [1]) of 118 nM, a Kd (HLA-A*02:02; [1]) of 262 nM and a Kd (HLA-A*02:06; [1]) of 1990 nM.

In the case of SMYTRLRQDT, the Kd (HLA-A*02:03; [1]) is reported as 1140 nM, the Kd (HLA-A*02:02; [1]) is reported as 6560 nM and the Kd (HLA-A*02:06; [1]) is reported as no less than 42200 nM.

Reference: the Immune Epitope Database (IEDB)
